Assays:
[1] = biological target: T1, Human EphA2 (ephrin receptor A2) (human, UniProt P29317 24-976); test: IHC/IF score on frozen human tumor tissue, ANC
T1 construct: Endogenous protein in frozen human tumor tissue and tumor adjacent tissue, not a recombinant construct

[2] = biological target: T1, Human EphA2 (ephrin receptor A2); test: IHC/IF score on frozen human tumor tissue, CRC
[3] = biological target: T1, Human EphA2 (ephrin receptor A2); test: IHC/IF score on frozen human tumor tissue, ESC
[4] = biological target: T1, Human EphA2 (ephrin receptor A2); test: IHC/IF score on frozen human tumor tissue, GAC
[5] = biological target: T1, Human EphA2 (ephrin receptor A2); test: IHC/IF score on frozen human tumor tissue, HNC
[6] = biological target: T1, Human EphA2 (ephrin receptor A2); test: IHC/IF score on frozen human tumor tissue, OVA
[7] = biological target: T1, Human EphA2 (ephrin receptor A2); test: IHC/IF score on frozen human tumor tissue, STS
[8] = biological target: T1, Human EphA2 (ephrin receptor A2); test: IHC/IF score on frozen human tumor tissue, URO
[9] = biological target: T1, Human EphA2 (ephrin receptor A2); test: IHC/IF score on frozen human tumor tissue, MELA
[10] = biological target: T1, Human EphA2 (ephrin receptor A2); test: IHC/IF score on frozen human tumor tissue, PANC
[11] = biological target: T1, Human EphA2 (ephrin receptor A2); test: IHC/IF score on frozen human tumor tissue, PROC
[12] = biological target: T1, Human EphA2 (ephrin receptor A2); test: IHC/IF score on frozen human tumor tissue, TNBC
[13] = biological target: T1, Human EphA2 (ephrin receptor A2); test: IHC/IF score on frozen human tumor tissue, ER+ BRC
[14] = biological target: T1, Human EphA2 (ephrin receptor A2); test: IHC/IF score on frozen human tumor tissue, NSCLC-SQ
[15] = biological target: T1, Human EphA2 (ephrin receptor A2); test: IHC/IF score on frozen human tumor tissue, Her2+ BRC
[16] = biological target: T1, Human EphA2 (ephrin receptor A2); test: IHC/IF score on frozen human tumor tissue, NSCLC-Adeno
[17] = biological target: T1, Human EphA2 (ephrin receptor A2); test: IHC/IF score on frozen human tumor tissue, RCC-papillary
[18] = biological target: T1, Human EphA2 (ephrin receptor A2); test: IHC/IF score on frozen human tumor tissue, RCC-clear cell
[19] = biological target: T1, Human EphA2 (ephrin receptor A2); test: IHC/IF score on frozen human tumor tissue, UCEC-papillary
[20] = biological target: T1, Human EphA2 (ephrin receptor A2); test: IHC/IF score on frozen human tumor tissue, UCEC-clear cell
[21] = biological target: T1, Human EphA2 (ephrin receptor A2); test: IHC/IF score on frozen human tumor tissue, UCEC-endometriod
[22] = biological target: T2, C-terminally His-tagged hEphA2-FN2 (Thr437-Asn534+His tag) (human, UniProt P29317 437-534); test: SPR Biacore T200, 25 C, mIgG2a as ligand, FN2-His as analyte, 1:1 Langmuir
T2 construct: SPR analyte; also called FN2 domain of hEphA2
T2 sequence (P29317 437-534 limits assumed): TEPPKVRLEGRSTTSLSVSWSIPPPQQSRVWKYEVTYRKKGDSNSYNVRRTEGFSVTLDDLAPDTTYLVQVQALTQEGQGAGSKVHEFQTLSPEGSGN
Description: Binding of EphA2 antibodies to the FN2 domain of hEphA2 was measured using the Biacore® T200 SPR system. Biacore® assays were conducted at 25° C. using HBS-EP+ buffer (0.01 M HEPES pH 7.4, 0.15 M NaCl, 3 mM EDTA, 0.005% v/v Surfactant P20) using the FN2 domain as the analyte with the antibodies in mIgG2a format as the immobilized ligand. Data was analyzed using 1:1 Langmuir binding model and steady-state model in Biacore Evaluation software.
C-terminally His-tagged human EphA2 FN2 domain (Thr437-Asn534+His tag) was used as the analyte. The analyte was associated for 120 seconds and dissociated for 100 seconds or 300 seconds at 30 uL/min.

[23] = biological target: T2, C-terminally His-tagged hEphA2-FN2 …; test: SPR Biacore T200, 25 C, mIgG2a captured by anti-mouse Fc, FN2-His as analyte, steady-state fit, monovalent
Description: Binding of antibodies to the FN2 domain of hEphA2 was measured using the Biacore® T200 SPR system at 25° C. using HBS-EP+ buffer (0.01 M HEPES pH 7.4, 0.15 M NaCl, 3 mM EDTA, 0.005% v/v Surfactant P20). Antibodies in mIgG2a format were captured at levels between 475-715 RU via an anti-mouse Fc antibody immobilized to a CM5 chip. Binding was assessed using a titration of C-terminally His-tagged hEphA2-FN2 (Thr437-Asn534+His tag) associated for 30 s or 75 s at 30 uL/min. Data was double-reference subtracted using both a surface without captured antibody and from injections of HBS-EP+ buffer. The equilibrium response was measured at 4 seconds before the end of association with a window of 5 seconds and fit using the Biacore T200 Evaluation Software 3.1 with the Steady State Affinity Model.

T1 sequence (P29317 24-976 limits assumed): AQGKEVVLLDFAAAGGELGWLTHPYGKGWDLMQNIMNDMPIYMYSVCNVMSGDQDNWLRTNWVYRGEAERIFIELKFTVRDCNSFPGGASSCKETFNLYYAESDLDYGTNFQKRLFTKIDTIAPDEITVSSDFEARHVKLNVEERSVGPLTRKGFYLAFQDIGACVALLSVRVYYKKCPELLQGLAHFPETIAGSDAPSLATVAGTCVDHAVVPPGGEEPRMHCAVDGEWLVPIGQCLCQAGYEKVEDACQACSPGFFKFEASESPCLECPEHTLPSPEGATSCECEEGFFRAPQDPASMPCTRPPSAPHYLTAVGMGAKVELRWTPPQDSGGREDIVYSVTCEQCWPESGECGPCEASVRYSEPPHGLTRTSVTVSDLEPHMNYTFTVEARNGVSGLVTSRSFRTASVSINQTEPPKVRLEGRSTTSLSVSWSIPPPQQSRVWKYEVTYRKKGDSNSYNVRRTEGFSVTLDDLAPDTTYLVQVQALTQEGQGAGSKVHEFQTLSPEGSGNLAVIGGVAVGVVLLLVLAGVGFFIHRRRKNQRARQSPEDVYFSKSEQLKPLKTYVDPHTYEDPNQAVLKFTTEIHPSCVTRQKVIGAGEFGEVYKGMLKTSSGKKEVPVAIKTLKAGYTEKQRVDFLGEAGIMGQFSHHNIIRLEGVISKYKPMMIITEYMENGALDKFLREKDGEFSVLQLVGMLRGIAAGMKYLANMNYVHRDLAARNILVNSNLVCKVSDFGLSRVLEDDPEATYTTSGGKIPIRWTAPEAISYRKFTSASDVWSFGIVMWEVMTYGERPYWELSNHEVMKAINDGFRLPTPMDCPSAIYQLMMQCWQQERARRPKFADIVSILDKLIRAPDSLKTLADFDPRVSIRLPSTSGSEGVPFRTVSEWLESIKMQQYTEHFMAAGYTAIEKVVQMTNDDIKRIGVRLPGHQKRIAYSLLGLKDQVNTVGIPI

| IHC score [1] | IHC score [2] | IHC score [3] | IHC score [4] | IHC score [5] | IHC score [6] | IHC score [7] | IHC score [8] | IHC score [9] | IHC score [10] | IHC score [11] | IHC score [12] | IHC score [13] | IHC score [14] | IHC score [15] | IHC score [16] | IHC score [17] | IHC score [18] | IHC score [19] | IHC score [20] | Binder | other results |
| --- | --- | --- | --- | --- | --- | --- | --- | --- | --- | --- | --- | --- | --- | --- | --- | --- | --- | --- | --- | --- | --- |
| 2 | 1 | 2 | 2 | 2 | 2 | 2 | 1 | 2 | 1 | 1 | 1 | 1 | 1 | 2 | 2 | 1 | 1 | 2 | 1 | AB-009812 (antibody, mouse IgG2a, V domains shown) VH: QVQLQQWGAGLLKPSETLSLTCAVYGGSFSDYYWSWIRQPPGKGLEWIGEVNHSGSINYNNYNPSLKSRVTISVDPSKNQFSLKLTSVTAADTAVYYCAKPLRPHCTNGVCYSGDAFDIWGQGTMVTVAS VL: SYVLTQPPSVSVAPGQTARITCGGNNIGSKNVHWYQQKPGQAPVLVVYDDSDRPSGIPEQFSGSNSGNTATLTISRVEAGDEADYYCQVWDSSSDHLVFGGGTKLTVL | IHC score [21]: 1 |
| – | – | – | – | – | – | – | – | – | – | – | – | – | – | – | – | – | – | – | – | AB-010699 (mIgG2a format) (antibody, V domains shown, Tested with mouse IgG2a constant regions (mIgG2a format)) VH: QVQLQQWGAGLLKPSETLSLTCAVYGGSFSGYYWSWIRQPPGKGLEWIGEINHRGSINYNNYNPSLKSRVTISVDTSKNQFSLKLSSVTAADTAVYYCAKPLRPHCINGVCYSGDAFDIWGQGTMVTVAS VL: SYVLTQPPSVSVAPGQTARITCGGNNIGYKNVHWYQQKPGQAPVLVVYDDSDRPSGIPERFSGSNSGNTATLTISRVEAGDEADYYCQVWDHSSDHVVFGGGTKLTVL | Kd [22]: 19 nM; koff [22]: 0.075 s⁻¹; kon [22]: 3.9e+06 M⁻¹ s⁻¹; Kd [23]: 18.9 nM |
| 2 | 1 | 2 | 2 | 2 | 2 | 2 | 1 | 2 | 1 | 1 | 1 | 1 | 1 | 2 | 2 | 1 | 1 | 2 | 2 | AB-009815 (antibody, mouse IgG2a, V domains shown) VH: QVQLQQWGAGLLKPSETLSLTCAVYGGSFSDYYWSWIRQPPGKGLEWIGEVNHRGSINYNNYNPSLKSRVTISVDTSKNQFSLKLTSVTAADTAVYYCAKPLRPHCTNGVCYSGDAFDIWGQGTMVTVAS VL: SYVLTQPPSVSVAPGQTARITCGGNNIGSKNVHWYQQKPGQAPVLVVYDDSDRPSGIPEQFSGSNSGNTATLTISRVEAGDEADYYCQVWDSSSDHLVFGGGTKLTVL | IHC score [21]: 1 |
| 2 | 1 | 2 | 2 | 2 | 2 | 2 | 1 | 2 | 1 | 1 | 1 | 1 | 1 | 2 | 2 | 1 | 1 | 2 | 2 | AB-009816 (antibody, mouse IgG2a, V domains shown) VH: QVQLQQWGAGLLKPSETLSLTCAVYGGSFSDYYWSWIRQPPGKGLEWIGEVNHRGSINYNNYNPSLKSRVTISVDASKNQFSLKLTSVTAADTAVYYCAKPLRPHCTNGVCYSGDAFDIWGQGTMVTVAS VL: SYVLTQPPSVSVAPGQTARITCGGNNIGSKNVHWYQQKPGQAPVLVVYDDSDRPSGIPEQFSGSNSGNTATLTISRVEAGDEADYYCQVWDSSSDHLVFGGGTKLTVL | IHC score [21]: 1 |
| 2 | 1 | 2 | 2 | 2 | 2 | 2 | 1 | 2 | 1 | 1 | 1 | 1 | 1 | 1 | 2 | 1 | 1 | 2 | 2 | AB-009813 (antibody, mouse IgG2a, V domains shown) VH: QVQLQQWGAGLLKPSETLSLTCAVYGGSFSDYYWSWIRQPPGKGLEWIGEVNHAGSINYNNYNPSLKSRVTISVDPSKNQFSLKLTSVTAADTAVYYCAKPLRPHCTNGVCYSGDAFDIWGQGTMVTVAS VL: SYVLTQPPSVSVAPGQTARITCGGNNIGSKNVHWYQQKPGQAPVLVVYDDSDRPSGIPEQFSGSNSGNTATLTISRVEAGDEADYYCQVWDSSSDHLVFGGGTKLTVL | IHC score [21]: 1 |
